B1: PSIV IGR (nucleic acid)
DNA: GCTGACTATGTGATCTTATTAAAATTAGGTTAAATTTCGAGGTTAAAAATAGTTTTAATATTGCTATAGTCTTAGAGGTCTTGTATATTTATACTTACCACACAAGATGGACCGGAGCAGCCCTCCAATATCTAGTGTACCCTCG
modifications: Plautia stali intestine virus
B2: EV D94 (nucleic acid, listed as Enterovirus sp.)
DNA: CGTGGCGGCCAGTACTCTGGTATCACGGTACCTTTGTACGCCTGTTTTATATCCCCTTCCCCCGCAACTTAGAAGAAAACAAATCAAGTTCACTAGGAGGGGGTACAAACCAGTACCACCACGAACAAGCACTTCTGTTTCCCCGGTGATGTCGTATAGACTGTAACCACGGTTGAAAACGATTGATCCGTTATCCGCTCTTGTACTTCGAAAAGCCCAGTATCACCTTGGAATCTTCGATGCGTTGCGCTCAGCACTCAACCCCAGAGTGTAGCTTAGGTCGATGAGTCTGGACACTCCTCACCGGCGACGGTGGTCCAGGCTGCGTTGGCGGCCTACCTGTGGTCCAAAGCCACAGGACGCTAGTTGTGAACAAGGTGTGAAGAGCCTATTGAGCTACAAGAGAATCCTCCGGCCCCTGAATGCGGCTAATCCTAACCACGGAGCAAGGGTACACAAACCAGTGTATATCTTGTCGTAACGCGCAAGTCTGTGGCGGAACCGACTACTTTGGGTGTCCGTGTTTCCTTTTGTTTTTATCATGGCTGCTTATGGTGACAATCTAAGATTGTTATCATATAGCTGTTGGATTGGCCATCCGGTAATTTATTGAGATTTGAGCATTTGCTTGTTTCTTCAACAATTTCACCTATTCATTGCATTTCAGCAGTCAAA
B3: EV 30 (nucleic acid, listed as Enterovirus sp.)
DNA: AAGCAAGGCAAACCTGACCAATAGTAGGTGTGGCACACCAGCCGCATTTTGGTCAAGCACTTCTGTTTCCCCGGACCGAGTATCAATAAGCTGCTCACGCGGCTGAAGGAGAAACCGTTCGTTACCCGACCAGCTACTTCGAGAAACCTAGTAACACTATGAACGTTGCGGAGTGTTTCGTTCAGCACTTCCCCCGTGTAGATCAGGTCGATGAGTCACCGCATTCCTCACGGGTGACCGTGGCGGTGGCTGCGTTGGCGGCCTGCCTACGGGTTCGCCCGTAGGACGCTCTAATACCGACATGGTGTGAAGAGTCCATTGAGCTAGCTGGTAGTCCTCCGGCCCCTGAATGCGGCTAATCCTAACTGCGGAGCAGGTGCTCACAGACCAGTGAGTAGCCTGTCGTAACGGGCAACTCTGCAGCGGAACCGACTACTTTGGGTGTTTTTCCTTTTTTCTTCTCTTATATTGGCTGCTTATGGTGACAATTAAAGAATTGTTACCATATAGCTATTGGATTGGCCATCCGGTGACGAGCAGAGCCATTGTTTACCTCTTTGTTGGATTTGTACCTTTGAACCACAAAGTCTTGAATACCATTCATCTCATTTTAAAGTTCAACTCAGCTAAAAGAAA
B4: EV C102 (nucleic acid, listed as Enterovirus sp.)
DNA: CTTTGTACGCCTGTTTTACATCCCCTCCCCCACGTAACTTTAGAAGCAATTCAACAAGTTCAATAGAGGGGGTACAAACCAGTATCACCACGAACAAGCACTTCTGTTTCCCCGGTGATTTTACATAAGCTGTGCCCACGGCTGAAAGTGAATGATCCGTTACCCGCTCGAGTACTTCGAAAAGCCTAGTATCGCTTTGGGATCTTCGACGCGTTGCGCTCAGCACTCTACCCCGAGTGTAGCTTAGGCTGATGAGTCTGGGCATTCCCCATCGGCGACGATGGCCCAGGCTGCGTTGGCGGCCTACCCATGGCTAACGCCATGGGACGCTAGTTGTGAACAAGGTGTGAAGAGCCTATTGAGCTACTCGAGAGTCCTCCGGCCCCTGAATGCGGCTAATCCCAACCACGGATCAGGTGCCTCCAACCCAGGAGGTGGCCTGTCGTAACGCGCAAGTCTGTGGCGGAACCGACTACTTTGGGTGTCCGTGTTTCCTTTTATCTTTTAAATGGCTGCTTATGGTGACAATCATAGATTGTTATCATAAAGCGAATTGGATTGGCCATCCGGTGAAATACAAACACATTATTTACTTGTTTGTTGGATTTACTCCGCTCACACAGCTTACTCCTAAGATAATATTTATTGTATTGCTGGTAAGGAGACACTATTATA
B5: SA5 (nucleic acid)
DNA: AGTACTTGGTATTCCGGTACCTTTGTACACCTATTTACAAACCCTACCCCTTGTAACCTTAGAAGCAATTATTTAACCGCTCACTAGGGGGTGTGCTATCCAAGCACATCAAGAGCAAGCACTTCTGTCTCCCCGGGAGGGGCTAATGGTACGCTGTGCCCACGGCGGAAATGAGCCCTACCGTTAACCGGCAGTCTACTTCGGGAAGCCCAGTAACTACATTGAAACTTTGAGGCGTTACACTCAGCACATAACCCCAATGTGTAGTTCTGGTCGATGAGCCTTGGCATCCCCCACAGGCGACTGTGGCCAAGGCTGCGTTGGCGGCCAGCCTGCGGACCAAAAGTCCGTAGGACGCCTAATTGTGGACATGGTGTGAAGAGCCTACTGAGCTAGACTGTAGTCCTCCGGCCCCTGAATGCGGCTAATCCTAACCCTGGAGCATCCGCGTGCAACCCAGTACGTAGGGTGTCGTAATGCGTAAGTCTGGGATGGAACCGACTACTTTGGGTGTCCGTGTTTCTTGTTTTTCATACTGGGTCGCTTATGGTTACAACTAATTGTTGTAATCATTGGCAGTGCGCGCTGACCACGCGATTATTGATATTTCCATTTGTTGGATACTCCAATAGTGTCAACTCATATACACAACTTTTACCACTGATCAAGATAAAA
B6: EV A114 (nucleic acid, listed as Enterovirus sp.)
DNA: TGTGCGCCTGTTTTGAAACCCCCTCCCCCAACTCGAAACGTAGAAGTAATGTACACTACTGATCAGTAGCAGGCGTGGCGCACCAGCCATGTCTCGATCAAGCACTTCTGTTTCCCCGGACTGAGTATCAATAGACTGCTCACGCGGTTGAAGGTGAAAACGTCCGTTACCCGGCTAACTACTTCGAGAAACCTAGTAGCACCATAGAAACTGCAGAGTGTTTCGCTCAGCACTTCCCCCGTGTAGATCAGGTCGATGAGTCACTGCAATCCCCACGGGTGACCGTGGCAGTGGCTGCGTTGGCGGCCTGCCTATGGGGCAACCCATAGGACGCTCTAAGGTGGACATGGTGTGAAGAGTCTATTGAGCTAGTTAGTAGTCCTCCGGCCCCTGAATGCGGCTAATCCTAACTGTGGAGCGCATACTCCCAAACCAGGGAGCAGTGCGTCGTAACGGGCAACTCCGCAGCGGAACCGACTACTTTGGGTGTCCGTGTTTCCTTTTATTCCTATACTGGCTGCTTATGGTGACAATTGAGAGATTGTTACCATATAGCTATTGGATTGGCCATCCAGTGTGTAATAGAGCAATCATTTACCAATTTGTTGGATTTACTCCATTAACCCACACGTCTCTCAACACACTACATTTCATCTTACTACTGAACACTAGAAA

Here are results for seven molecules from patent US20230226096A1 (Orna Therapeutics, Inc., priority 2020, published 2023).

“Also recorded” adds a separate entry of the source.

The first data set concerns HEK293 cells.
Experiment: not given
It is filed as cell-based, human. The conditions noted are these: luminescence from secreted Gluc in supernatant 24 hours after transfection of HEK293 cells; circular RNA encoding Gluc with the named IRES (UTR truncated to 675 nt).
B1 registered an Expression of 1.01E+05. On the same count and under the same terms, then B2, with 9.25E+07.

The molecule B3 yielded an Expression of 5.48E+06. Regarding B4, the Expression turned out to be 8.85E+07. Still for that read-out and setting: then B5, with 1.61E+08; and B6, with 1.50E+08.

For the next data set, the system named is splenic immune cells. Briefly: Cre circular RNA LNPs in Cre reporter (Ai9) mice: tdTomato+ splenic immune cells. It is filed as in vivo. To be noted: 0.5 mg/kg RNA intravenously, 48 hr, 0.5 mg/kg. As for the experimental part:
Circular RNAs encoding Cre recombinase (Cre) are encapsulated into lipid nanoparticles as previously described. Female, 6-8 week old B6.Cg-Gt(ROSA)26Sortm9(CAG-tdTomato)Hze/J (Ai9) mice were dosed with lipid nanoparticles at 0.5 mg/kg RNA intravenously. Fluorescent tdTomato protein was transcribed and translated in Ai9 mice upon Cre recombination, meaning circular RNAs have been delivered to and translated in tdTomato+ cells. After 48 hr, mice were euthanized and the spleens were harvested, processed into a single cell suspension, and stained with various fluorophore-conjugated antibodies for immunophenotyping via flow cytometry.
Ai9 mice (B6.Cg-Gt(ROSA)26Sortm9(CAG-tdTomato)Hze/J, female, 6-8 weeks, n=3 per group) were injected i.v. with 0.5 mg/kg Cre oRNA LNPs or PBS. Ai9 mice transcribe and translate the fluorescent reporter tdTomato upon Cre recombination; meaning cells which are tdTomato+ have successfully been transfected with Cre oRNA.
In the case of `CCCCCCCCC(CCCCCC)C(=O)OCCCCCCN(CCCCCCOC(=O)C(CCCCCC)CCCCCCCC)CCCn1ccnc1` (stereo not shown) [Lipid 26 from Table 10a], the “proportion of splenic immune cells expressing tdTomato (transfection)” value was “significantly higher myeloid and T cell transfection compared with Lipid 93-S14; also recorded: effective at delivering circular RNAs to many splenic immune cell subsets in mice”.
